Assay [1] addresses T1, recombinant cynomolgus CD47 protein (cynomolgus monkey, UniProt A0A5F8AK49 19-139 (rhesus entry)).
T1 construct: also called cynomolgus monkey CD47 recombinant protein
Put plainly: ELISA: recombinant cynomolgus CD47 coated on the plate, chemiluminescence. (In general: An ELISA detects its analyte on a solid surface through an enzyme-linked reagent.)

The target of assay [2] is T2, recombinant human CD47 protein (human, UniProt Q08722 19-139).
T2 construct: Bought (Cedarlane Cat. No. 12283-H08H-200); also called human recombinant CD47 protein; CD47 recombinant protein
Put plainly: ELISA: recombinant human CD47 coated on the plate, chemiluminescence.

Assay [3] has as its target T3, human CD47 on cells (HEK293T cells, human blood cells, primary human T cells) (human, UniProt Q08722 19-323).
T3 construct: Endogenous CD47 of human cells; For blood cells and T cells it is inferred from the specificity of the anti-CD47 module
The experiment in a line: flow cytometry on primary human T cells.

Assay [4] deals with T4, recombinant human PD-1 protein (human, UniProt Q15116 25-167).
T4 construct: Bought (Cedarlane Cat. No. HPLC-10377-H08H-100); also called human recombinant PD1 protein; PD-1 recombinant protein
T4 sequence (Q15116 25-167 limits assumed): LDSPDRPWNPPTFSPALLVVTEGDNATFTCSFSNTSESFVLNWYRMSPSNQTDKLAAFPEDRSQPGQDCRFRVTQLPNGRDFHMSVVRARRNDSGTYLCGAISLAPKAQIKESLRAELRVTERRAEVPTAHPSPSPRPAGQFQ
The experiment in a line: ELISA: recombinant human PD-1 coated on the plate, anti-human-Fc-HRP, chemiluminescence. The method, then: (§1) Briefly, recombinant proteins were coated on 96-well plates. Plates were covered and left at 4° C. overnight. The next day, plates were washed once with PBS and blocked with blocking buffer for 1 hour at room temperature. Binding agents were tested at the indicated concentration (357 nM starting concentration, followed by 12 one in four serial dilutions for FIG. 9B lower panel), diluted in the blocking buffer, and incubated for 1 hour at 37° C. After incubation, plates were washed three times with washing buffer. Plates were incubated with anti-human-Fc-HRP (Sigma-Aldrich, Cat. No. AP113P) diluted at 1:5000 for 1 hour at room temperature, then washed three times with PBS-T washing buffer. The signal was developed with SuperSignal™ ELISA Pico Chemiluminescent Substrate (Thermofisher, Cat. No. 37069). The plates were read on a SpectraMax™ i3x Multi-Mode Microplate Reader (Molecular Devices).

Assay [5] concerns the target T4, recombinant human PD-1 protein. The description is as above. As to the method: as §1
This is another data set of the same source.

For assay [6], the target named is T5, recombinant cynomolgus monkey PD-1 protein (cynomolgus monkey, UniProt B0LAJ3 25-170).
T5 construct: also called cynomolgus monkey recombinant PD1 protein
T5 sequence (B0LAJ3 entry or part of it limits assumed): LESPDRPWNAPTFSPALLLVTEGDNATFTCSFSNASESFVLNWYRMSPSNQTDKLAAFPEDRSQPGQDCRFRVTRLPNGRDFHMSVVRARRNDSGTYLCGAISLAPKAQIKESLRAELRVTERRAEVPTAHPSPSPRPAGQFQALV
Put plainly: ELISA: recombinant cynomolgus PD-1 coated on the plate, anti-human-Fc-HRP, chemiluminescence. The method, then: as §1

Assay [7] addresses T6, human PD-1 on CHO-PD1 cells (human, UniProt Q15116 25-288).
T6 construct: also called CHO-PD-1 cell line
The experiment in a line: flow cytometry on CHO-PD1 cells, APC anti-human-Fc secondary antibody. A general note: A flow cytometer gives signals particle by particle.

For assay [8], the target named is PD-1 on the Jurkat effector cells of the PD-1/PD-L1 blockade bioassay (UniProt Q15116 25-288, limits assumed). Put plainly: cell-based or functional assay.
Sequence of PD-1 on the Jurkat effector cells of the PD-1/PD-L1 blockade bioassay (Q15116 25-288 limits assumed): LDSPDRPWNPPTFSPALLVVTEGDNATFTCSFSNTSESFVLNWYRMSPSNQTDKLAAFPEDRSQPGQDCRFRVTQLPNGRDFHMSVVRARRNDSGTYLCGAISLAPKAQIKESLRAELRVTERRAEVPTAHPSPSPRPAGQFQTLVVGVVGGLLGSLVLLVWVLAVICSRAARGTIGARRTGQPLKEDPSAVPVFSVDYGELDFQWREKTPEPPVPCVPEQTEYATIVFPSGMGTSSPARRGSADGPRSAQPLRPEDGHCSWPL
The target in a further assay is T7, BSA.
T7 construct: also called control protein (BSA)
T7 sequence (chain, as listed by the source limits assumed): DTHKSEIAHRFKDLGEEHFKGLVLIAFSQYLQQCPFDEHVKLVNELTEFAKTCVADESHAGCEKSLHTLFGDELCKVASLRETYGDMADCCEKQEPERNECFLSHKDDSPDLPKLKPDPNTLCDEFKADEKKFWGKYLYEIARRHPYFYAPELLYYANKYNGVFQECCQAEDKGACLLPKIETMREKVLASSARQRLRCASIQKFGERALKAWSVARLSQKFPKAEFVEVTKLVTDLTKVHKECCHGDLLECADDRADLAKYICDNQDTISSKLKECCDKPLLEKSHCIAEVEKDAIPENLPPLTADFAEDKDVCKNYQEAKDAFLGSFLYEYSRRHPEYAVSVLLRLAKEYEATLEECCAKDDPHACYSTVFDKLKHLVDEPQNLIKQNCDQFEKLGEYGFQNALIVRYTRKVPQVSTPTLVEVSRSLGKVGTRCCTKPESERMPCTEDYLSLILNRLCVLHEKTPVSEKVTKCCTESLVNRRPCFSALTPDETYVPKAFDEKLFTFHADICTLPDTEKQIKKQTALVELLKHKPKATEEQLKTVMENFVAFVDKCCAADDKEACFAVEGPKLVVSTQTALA
The experiment in a line: ELISA: BSA coated on the plate, anti-human-Fc-HRP, chemiluminescence. As to the method:
as §1

In assay [9] the target is T4, recombinant human PD-1 protein. The experiment in a line: ELISA: recombinant human PD-1 coated on the plate, anti-human-Fc-HRP, chemiluminescence. As to the method:
as §1
This is another data set of the same source.

The target of assay [10] is T8, recombinant rat PD-1 protein (rat, UniProt D3ZIN8 25-169).
T8 construct: also called rat recombinant PD1 protein
T8 sequence: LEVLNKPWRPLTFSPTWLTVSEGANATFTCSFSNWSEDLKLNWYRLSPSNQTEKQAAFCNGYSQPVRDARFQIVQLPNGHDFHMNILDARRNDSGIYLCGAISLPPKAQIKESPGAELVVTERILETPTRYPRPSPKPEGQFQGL
The experiment in a line: ELISA: recombinant rat PD-1 coated on the plate, anti-human-Fc-HRP, chemiluminescence. The method, then: as §1

Like-named read-outs stand apart in the source and are kept apart here.

T6 sequence (Q15116 25-288 limits assumed): as the sequence (Q15116 25-288 limits assumed) above

B1: monoclonal anti-CD47 antibody clone B6H12 (antibody)
chain: EVQLVESGGDLVKPGGSLKLSCAASGFTFSGYGMSWVRQTPDKRLEWVATITSGGTYTYYPDSVKGRFTISRDNAKNTLYLQIDSLKSEDTAIYFCARSLAGNAMDYWGQGTSVTVSSGGGGSGGGGSGGGGSDIVMTQSPATLSVTPGDRVSLSCRASQTISDYLHWYQQKSHESPRLLIKFASQSISGIPSRFSGSGSGSDFTLSINSVEPEDVGVYYCQNGHGFPRTFGGGTKLEIK
B1: the concentration for a half-maximal effect (EC50 (read off the curve)) (as a rule, the concentration needed to bring the measured effect to its halfway point) in assay [1] was around 0.1 nM; in [2] it was around 0.5 nM.

B2: KC034 (Fc fusion)
VHH-hinge-CH2-CH3-linker-VHH-linker-VHH polypeptide chain: QVQLVESGGGSVQAGGSLRLSCAASGSTDSIEYMTWFRQAPGKAREGVAALYTHTGNTYYTDSVKGRFTISQDKAKNMAYLRMDSVKSEDTAIYTCGATRKYVPVRFALDQSSYDYWGQGTQVTVSSEPKSCDKTHTCPPCPAPELLGGPSVFLFPPKPKDTLMISRTPEVTCVVVDVSHEDPEVKFNWYVDGVEVHNAKTKPREEQYNSTYRVVSVLTVLHQDWLNGKEYKCKVSNKALPAPIEKTISKAKGQPREPQVYTLPPSREQMTKNQVSLTCLVKGFYPSDIAVEWESNGQPENNYKTTPPVLNSDGSFFLYSKLTVDKSRWQQGNVFSCSVMHEALHNHYTQESLSLSPGKAPAPAPAPAPKAQVQLVESGGGSVQAGGSLRLSCAASGSTDSIEYMTWFRQAPGKAREGVAALYTHTGNTYYTDSVKGRFTISQDKAKNMAYLRMDSVKSEDTAIYTCGATRKYVPVRFALDQSSYDYWGQGTQVTVSSGGGGSGGGGSGGGGSEVQLVESGGGLVQPGGSLRLSCAASGDIYKSFDMGWYRQAPGKQRDLVAVIGSRGNNRGRTNYADSVKGRFTISRDGTGNTVYLLMNKLRPEDTAIYYCNTAPLVAGRPWGRGTLVTVSS
notes: also called (HEWL)
On to B2, for which, in assay [3], the binding result is given as “no binding (tested: 350 nM)”.

B3: KC067 (Fc fusion)
chain: QVQLVESGGGSVQAGGSLRLSCAASGSTDSIEYMTWFRQAPGKAREGVAALYTHTGNTYYTDSVKGRFTISQDKAKNMAYLRMDSVKSEDTAIYTCGATRKYVPVRFALDQSSYDYWGQGTQVTVSSEPKSCDKTHTCPPCPAPELLGGPSVFLFPPKPKDTLMISRTPEVTCVVVDVSHEDPEVKFNWYVDGVEVHNAKTKPREEQYNSTYRVVSVLTVLHQDWLNGKEYKCKVSNKALPAPIEKTISKAKGQPREPQVYTLPPSREQMTKNQVSLTCLVKGFYPSDIAVEWESNGQPENNYKTTPPVLNSDGSFFLYSKLTVDKSRWQQGNVFSCSVMHEALHNHYTQESLSLSPGKAPAPAPAPAPKAQVQLQESGGGLVQPGGSLRLSCAASGFTFSNYGMSWVRQAPGEGLEWVSSIDSTGGTTRYADSVKGRFTISRDNAKNALYLQMNSLKPEDTAVYYCAKDFLSWMPRGQGTQVTVSSGGGGSGGGGSGGGGSQVQLVESGGGSVQAGGSLRLSCAASGSTDSIEYMTWFRQAPGKAREGVAALYTHTGNTYYTDSVKGRFTISQDKAKNMAYLRMDSVKSEDTAIYTCGATRKYVPVRFALDQSSYDYWGQGTQVTVSS
notes: the ranges are mine
In the case of B3, the “EC50 (read off the curve)” value in [4] was around 0.5 nM.

B4: KC035 (Fc fusion)
chain: QVQLVESGGGSVQAGGSLRLSCAASGSTDSIEYMTWFRQAPGKAREGVAALYTHTGNTYYTDSVKGRFTISQDKAKNMAYLRMDSVKSEDTAIYTCGATRKYVPVRFALDQSSYDYWGQGTQVTVSSEPKSCDKTHTCPPCPAPELLGGPSVFLFPPKPKDTLMISRTPEVTCVVVDVSHEDPEVKFNWYVDGVEVHNAKTKPREEQYNSTYRVVSVLTVLHQDWLNGKEYKCKVSNKALPAPIEKTISKAKGQPREPQVYTLPPSREQMTKNQVSLTCLVKGFYPSDIAVEWESNGQPENNYKTTPPVLNSDGSFFLYSKLTVDKSRWQQGNVFSCSVMHEALHNHYTQESLSLSPGKAPAPAPAPAPKAQVQLVESGGGSVQAGGSLRLSCAASGSTDSIEYMTWFRQAPGKAREGVAALYTHTGNTYYTDSVKGRFTISQDKAKNMAYLRMDSVKSEDTAIYTCGATRKYVPVRFALDQSSYDYWGQGTQVTVSSGGGGSGGGGSGGGGSQVQLVESGGGSVQAGGSLRLSCAASGSTDSIEYMTWFRQAPGKAREGVAALYTHTGNTYYTDSVKGRFTISQDKAKNMAYLRMDSVKSEDTAIYTCGATRKYVPVRFALDQSSYDYWGQGTQVTVSS
notes: Three anti-HEWL VHHs on an Fc; May comprise a His-tag or not; also called negative control
In the case of B4, the binding result in assay [3] is on record as “no binding (tested: 350 nM)”; in [5] it was “no binding (tested: about 700 nM)”; in assay [6], “no binding (tested: about 700 nM)”; in [7], “no binding”.

B5: KC036 (Fc fusion)
chain: QVQLVESGGGSVQAGGSLRLSCAASGSTDSIEYMTWFRQAPGKAREGVAALYTHTGNTYYTDSVKGRFTISQDKAKNMAYLRMDSVKSEDTAIYTCGATRKYVPVRFALDQSSYDYWGQGTQVTVSSEPKSCDKTHTCPPCPAPELLGGPSVFLFPPKPKDTLMISRTPEVTCVVVDVSHEDPEVKFNWYVDGVEVHNAKTKPREEQYNSTYRVVSVLTVLHQDWLNGKEYKCKVSNKALPAPIEKTISKAKGQPREPQVYTLPPSREQMTKNQVSLTCLVKGFYPSDIAVEWESNGQPENNYKTTPPVLNSDGSFFLYSKLTVDKSRWQQGNVFSCSVMHEALHNHYTQESLSLSPGKAPAPAPAPAPKAQVQLQESGGGWVQPGGSLRLSCVASGFTFSRSSMSWHRQAPGKERDLVAIISSSGIITHYSDSVKGRFTISRDNAKDTVYLQMNSLKPEDTAVYVCNAVLDDDSGDYWGQGTQVTVSSGGGGSGGGGSGGGGSQVQLVESGGGSVQAGGSLRLSCAASGSTDSIEYMTWFRQAPGKAREGVAALYTHTGNTYYTDSVKGRFTISQDKAKNMAYLRMDSVKSEDTAIYTCGATRKYVPVRFALDQSSYDYWGQGTQVTVSS
notes: May comprise a His-tag or not; also called (HEWL)
Regarding B5, in assay [8], the “EC50 (read off the curve), PD-1/PD-L1 blockade NFAT-luciferase reporter” value is around 2 nM. Further, the binding result with BSA is reported as “no binding (tested: about 700 nM)”. Also, the half-maximal effective concentration (EC50 (read off the curve)) in assay [9] was around 0.2 nM; in assay [5] it was around 0.1 nM; in [6], around 0.1 nM; in [4] it was around 0.2 nM; in assay [10], around 0.1 nM.
